Consider two substances from patent US20230190951A1, “CONJUGATES OF ANTIBODIES AN IMMUNE CELL ENGAGERS” (SYNAFFIX B.V., priority 2020, published 2023).

The conditions of data set [1]: single-arm trial, all patients treated; cited from earlier work.
For data set [2] the following is noted: cited from earlier work.
Another data set has as its target T1, CD3 (Homo sapiens, UniProt P07766).
T1 construct: Jurkat E6.1 cells, which express CD3 on the cell surface; endogenous in cells; host or cells: Jurkat E6.1
Briefly: CD3 binding analysis by FACS on CD3-positive Jurkat E6.1 cells. The following applies: for median fluorescence intensity: Jurkat E6.1 (CD3-positive), median of duplicate. On the procedure: (§1) Both cell lines were cultured in RPMI 1640 supplemented with 1% pen/strep and 10% fetal bovine serum at a concentration of 2 x 10^5 to 1 x 10^6 cells/ml. Cells were washed in fresh medium before the experiment and 100,000 cells per well were seeded in a 96-wells plate (duplicate wells). The dilution series of 6 antibodies were made in phosphate-buffered saline (PBS). The antibodies were diluted 10 times in the cell suspension and incubated at 4° C. in the dark for 30 minutes. After incubation, the cells were washed twice in cold PBS / 0.5% BSA, and incubated with anti-HIS-PE (only for 200) or anti-IgG1-PE (for all other compounds) at 4° C., in the dark for 30 minutes. After the second incubation step, the cells were washed twice. 7AAD was added as a live-dead staining. Detection of the fluorescence in the Yellow-B channel (anti-IgG1-PE and anti-HIS-PE) and the Red-B channel (7AAD) was done with the Guava 5HT flow cytometer. Median fluorescence intensity in the Yellow-B channel (anti-IgG1-PE and anti-HIS-PE) in life cells was determined with Kaluza software.
A general note: Flow cytometry measures light scatter and fluorescence of single cells or particles in a stream.

A further data set deals with MOLT-4 cells. In words: CD3 binding analysis by FACS on CD3 negative MOLT-4 cells. The following applies: MOLT-4 (CD3 negative). On the procedure:
as §1

The next data set deals with FcRn receptor (Homo sapiens, UniProt P55899). Briefly: FcRn binding analysis by Biacore (steady state). As to conditions: pH 6.0, PBS with 0.05% tween-20. Here is the method: Binding to the FcRn receptor was determined at pH 7.4 and pH 6.0 using a Biacore T200 (serial no. 1909913) using single-cycle kinetics and running Biacore T200 Evaluation Software V 2.0.1. A CM5 chip was coupled with FcRn in sodium acetate pH 5.5 using standard amine chemistry. Serial dilution of bispecifics and controls were measured in PBS pH 7.4 with 0.05% tween-20 (9 points; 2-fold dilution series; 8000 nM Top conc.) and in PBS pH 6.0 with 0.05% tween-20 (3 points; 2-fold dilution series; 4000 nM Top conc.). A flow rate of 30 µl/min was used and an association time of 40 seconds and dissociation time of 75 seconds. Steady state analysis was used to analyze samples.
Sequence of FcRn receptor (P55899 24-297 limits assumed): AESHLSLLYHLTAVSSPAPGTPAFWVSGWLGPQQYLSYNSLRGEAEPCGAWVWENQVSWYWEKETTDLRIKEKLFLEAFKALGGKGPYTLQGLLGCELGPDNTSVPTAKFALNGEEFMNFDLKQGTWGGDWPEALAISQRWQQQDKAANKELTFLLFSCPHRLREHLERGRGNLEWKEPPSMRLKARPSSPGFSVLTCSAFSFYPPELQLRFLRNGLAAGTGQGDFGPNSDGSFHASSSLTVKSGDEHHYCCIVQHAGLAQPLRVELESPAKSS
Sequence of FcRn receptor (P61769 21-119 partner): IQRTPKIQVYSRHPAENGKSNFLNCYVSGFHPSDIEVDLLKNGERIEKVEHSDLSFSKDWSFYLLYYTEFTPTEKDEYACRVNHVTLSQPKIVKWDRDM
On the technique in general: In SPR one partner is held on a chip, and binding of the other changes the refractive index at the surface.

T1 sequence (P07766 23-207): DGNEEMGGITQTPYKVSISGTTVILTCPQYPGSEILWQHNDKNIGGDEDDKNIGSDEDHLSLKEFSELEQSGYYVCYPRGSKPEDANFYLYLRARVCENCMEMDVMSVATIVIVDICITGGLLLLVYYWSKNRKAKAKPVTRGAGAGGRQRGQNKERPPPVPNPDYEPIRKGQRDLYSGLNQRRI
T1 sequence (P04234 22-171 partner): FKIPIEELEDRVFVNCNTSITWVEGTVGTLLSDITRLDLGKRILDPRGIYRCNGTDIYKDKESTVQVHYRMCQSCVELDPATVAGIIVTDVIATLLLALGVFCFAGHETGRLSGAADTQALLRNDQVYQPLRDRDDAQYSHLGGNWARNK
T1 sequence (P09693 23-182 partner): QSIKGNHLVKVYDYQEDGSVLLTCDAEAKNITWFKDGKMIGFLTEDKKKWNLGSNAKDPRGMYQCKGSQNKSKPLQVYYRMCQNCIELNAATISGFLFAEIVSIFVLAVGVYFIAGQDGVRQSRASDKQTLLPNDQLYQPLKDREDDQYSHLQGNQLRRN
T1 sequence (P20963 22-164 partner): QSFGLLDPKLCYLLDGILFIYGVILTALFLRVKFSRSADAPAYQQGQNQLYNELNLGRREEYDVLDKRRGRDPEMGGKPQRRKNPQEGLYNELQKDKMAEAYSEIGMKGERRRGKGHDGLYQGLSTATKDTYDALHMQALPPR

As to blinatumomab, in data set [1], the complete remission rate is 32% and the “minimal residual disease (MRD) response” value is listed as 31%. For the same substance, the serum half-life in data set [2] is given as 2.11 h.

For rituximab, the median fluorescence intensity with CD3 (0.32 nM) came out at 58.28; with CD3 (1 nM), 56.55; with CD3 (3.16 nM), 55.37; with CD3 (10 nM) it was 60.83; with CD3 (31.6 nM), 58.71; with CD3 (100 nM), 55.49. Also, the median fluorescence intensity is listed as 54.99 with CD3 (316 nM); 66.36 in the data set with CD3 (1000 nM); 78.96 in the data set on MOLT-4 cells (1 nM); 75.92 with MOLT-4 cells (10 nM); 68.42 with MOLT-4 cells (100 nM); 67.39 in the data set with MOLT-4 cells (1000 nM). Also, the “binding to the CD3 positive Jurkat E6.1 cell line” value in the data set with CD3 (Jurkat E6.1, result in words) was “not”. Also, the “RMAX (RU)” value with FcRn receptor came out at 96.4 RU.
